Data set [1] can be described thus: flow cytometry and immunofluorescence. Particulars: glycan changed form; control: 231 cells. For orientation: A flow cytometer gives signals particle by particle.
A short description of data set [2]: CHX (20 µM) chase, PD-L1 half-life. Conditions: glycan changed form; control: 231 cells.
Data set [3] in a line: western blot of extracellular vesicles. Conditions: glycan changed form; control: 231-EVs. (In general: A western blot detects proteins with antibodies after separation by electrophoresis.)
Data set [4] in a line: western blot, flow cytometry, confocal microscopy. Particulars: glycan changed form; control: MCF7 cells.

As to PD-L1: 231-MGAT3 (MGAT3 overexpression), in data set [1], the expression_or_secretion entry was “decreases”. In addition, the degradation_or_half_life entry in data set [2] is “decreases”.

Consider “PD-L1: 231-MGAT3-EVs (MGAT3 overexpression)”, for which the expression_or_secretion result in data set [3] is “decreases”.

For PD-L1: MCF7-shM3 (MGAT3 shRNA), the expression_or_secretion result in data set [4] is “increases”.

The values above are taken from PMC12323189.
